Residues, ends and D or L forms follow the SMILES beside them. No end group written: not given here. *: point of attachment. X2 = CC1(C)C(=CC=C2CCCC(C=CC3=[N+](CCCCS(=O)(=O)[O-])c4ccc(S(=O)(=O)O)cc4C3(C)C)=C2Oc2ccc(S(=O)(=O)O)cc2)N(CCCCCC(=O)NCCN2C(=O)CC(*)C2=O)c2ccc(S(=O)(=O)O)cc21; IRDye800 = IRDye800 near-infrared fluorophore Where only a bound is given, the exact number is not on record here.

We go through six molecules from PMC11352241, “Detection of Hepatocellular Carcinoma in an Orthotopic Patient-Derived Xenograft with an Epithelial Cell Adhesion Molecule-Specific Peptide” (Cancers, 2024).

The target in data set [1] is EpCAM. The note with it: read-out: binding affinity kd; cited from earlier work. An excerpt: An IRDye800-labeled chimeric monoclonal antibody 323/A3 was used to detect a broad range of tumors found clinically. Cell-derived xenograft colon, breast, head and neck, and peritoneal carcinomatosis tumors were implanted orthotopically. Tumor nodules with millimeter dimensions were detected with NIR fluorescence imaging that were not otherwise visible. […] Also, a 7-mer peptide YQ-S2 was labeled with the NIR fluorophore MPA [36]. The peptide was character ...

For data set [2], the target named is T1, EpCAM (Homo sapiens, UniProt P16422).
T1 construct: endogenous in cells; host or cells: Hep3B human hepatocellular carcinoma cells
T1 sequence (P16422 24-314): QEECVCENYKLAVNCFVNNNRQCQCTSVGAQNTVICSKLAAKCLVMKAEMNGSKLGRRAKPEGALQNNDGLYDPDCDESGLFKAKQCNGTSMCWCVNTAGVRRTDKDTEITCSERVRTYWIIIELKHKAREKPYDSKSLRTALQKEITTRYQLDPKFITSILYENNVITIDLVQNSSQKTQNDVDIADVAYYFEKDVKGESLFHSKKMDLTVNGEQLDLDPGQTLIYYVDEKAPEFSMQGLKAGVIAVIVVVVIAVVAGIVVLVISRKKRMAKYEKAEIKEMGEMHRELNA
Kind of data set: Binding competition with unlabeled peptide on Hep3B cells. Format: cell-based. The note with it: confocal microscopy. The method, then:
Unlabeled target and control peptide was added to IRDye800-labeled target peptides to compete for binding to EpCAM. Inverted confocal microscopy (Leica, Wetzlar, Germany, Stellaris 5) was used to acquire the NIR fluorescence images, and intensities were measured with custom MATLAB (Mathworks) software (Matlab version R2023a).

The subject of data set [3] is human HCC patient-derived xenograft (PDX) tumors. Kind of data set: In vivo whole-body NIR fluorescence imaging, orthotopic HCC PDX.
Protocol: Orthotopic HCC mice were used for imaging ~3–4 weeks post-implantation.
IRDye800-labeled target and control peptides (300 μM, 200 μL PBS), unlabeled target peptide (block, 1.5 mM, 100 μL), and ICG (2.46 mg/kg) were injected in tumor-bearing animals using the tail vein. Unlabeled target peptide was injected 30 min prior to the IRDye800-labeled target peptide to compete for binding. The Pearl Trilogy (LI-COR Biosciences) was used to collect whole-body NIR fluorescence images over a time frame of 24 h post-injection.
For the next data set, the system named is tumors. The following applies: ICG, EPR effect; cited from earlier work. An excerpt: An IRDye800-labeled chimeric monoclonal antibody 323/A3 was used to detect a broad range of tumors found clinically. Cell-derived xenograft colon, breast, head and neck, and peritoneal carcinomatosis tumors were implanted orthotopically. Tumor nodules with millimeter dimensions were detected with NIR fluorescence imaging that were not otherwise visible. […] Also, a 7-mer peptide YQ-S2 was labeled with the NIR fluorophore MPA [36]. The peptide was character ... || Image-guided surgery aims to remove all cancerous tissues, and thus requires an effective strategy to discriminate tumor cells from non-tumor cells. NIR fluorescence imaging can be used as an adjunct to conventional laparoscopy to assist the surgeon to identify small and missed lesions. The spectra of white light illumination and IRDye800 fluorescence are sufficiently separated so that both modalities can be used concurrently during surgery. ICG is FDA-approved, and this contrast agent is currently being used clinically to identify HCC in real time. The non-specific NIR dye gathers in t ...

A further data set in a line: Serum stability. The note with it: 30 μM IRDye800-labeled peptide in mouse serum, 37 °C, 0, 0.5, 1.0, 1.5, 2, 3, 4 and 24 h, analytical RP-HPLC area under the peak; R^2 = 0.99; n = 6 mice in each group; read-out: half-life T1/2 in mouse serum (converted). Format: in vitro ADME. As for the experimental part: IRDye800-labeled target peptide measuring 30 μM was incubated with mouse serum at time intervals ranging up to 24 h at 37 °C, and was monitored by analytical RP-HPLC. The relative peptide concentrations were determined by measuring the area under the peak (Waters, Breeze 2).

A short description of data set [4]: Peptide biodistribution in harvested organs. The following applies: organs harvested 1.5 h post-injection, NIR fluorescence. Type of data set: in vivo, mouse. As for the experimental part: PDX-implanted mouse livers were exposed by making a small (1–2 cm) incision in the abdomen below the sternum. A custom laparoscope that collects white light and fluorescence images (λex = 785 nm) concurrently were used to image the liver region at 1.5 h post-injection via the tail vein [34]. IRDye800-labeled peptides, unlabeled peptide, and ICG were administrated as described above. Once imaging was completed, major organs, including the heart, spleen, lung, liver, brain, stomach, kidney, and intestine, were collected and imaged with white light and fluorescence to evaluate peptide biodistribution.

The nature of data set [5]: Animal necropsy for acute toxicity. Format: in vivo, mouse. The note with it: healthy mice, 48 h post-injection, 300 μM, 200 μL PBS; heart, liver, spleen, lung, kidney, stomach, intestine, brain. The method, then:
Healthy mice were euthanized at 48 h post-injection with the IRDye800-labeled target peptide (300 μM, 200 μL PBS). Major organs, including liver, kidney, heart, lung, spleen, stomach, intestine, and brain, were resected and submitted for pathological evaluation to assess for acute toxicity.

Another data set has as its target T2, HPD*-IRDye800.
T2 chain: HPDMFTRTHSHNGGGSC-IRDye800
Kind of data set: Hep3B cell binding.

A word on the Kd: it is a measure of binding affinity in units of concentration. For the molecule “SNFYMPL [7-mer EpCAM peptide used to label a pH-sensitive polymeric micelle encapsulating paclitaxel]”, the Kd on EpCAM [1] was 164 nM. “HPDMFTRTHSHN [HPD*, unlabeled 12-mer EpCAM target peptide …]”: the “effect of unlabeled peptide on HPD*-IRDye800 fluorescence intensity” value on EpCAM [2] is “decrease significantly”. `CC1(C)C(/C=C/C=C/C=C/C=C2\N(CCCCS(=O)(=O)O)c3ccc4ccccc4c3C2(C)C)=[N+](CCCCS(=O)(=O)[O-])c2ccc3ccccc3c21` [ICG, indocyanine green, reference compound]: the “T/B ratio at peak uptake” value in data set [3] (whole-body imaging, 1.5 h post-injection, tail vein, labeled peptides 300 μM, 200 μL, block = unlabeled HPD* before HPD*-IRDye800, ICG 2.46 mg/kg, mean ± SD, n = 6) turned out to be 1.26 ± 0.05. The “time of maximum tumor absorption post-injection” value in the data set with tumors is listed as more than 48 h. `CSCC[C@H](NC(=O)[C@H](CC(=O)O)NC(=O)[C@@H]1CCCN1C(=O)[C@@H](N)Cc1c[nH]cn1)C(=O)N[C@@H](Cc1ccccc1)C(=O)N[C@H](C(=O)N[C@@H](CCCNC(=N)N)C(=O)N[C@H](C(=O)N[C@@H](Cc1c[nH]cn1)C(=O)N[C@@H](CO)C(=O)N[C@@H](Cc1c[nH]cn1)C(=O)N[C@@H](CC(N)=O)C(=O)NCC(=O)NCC(=O)NCC(=O)N[C@@H](CO)C(=O)N[C@@H](CSC1CC(=O)N(CCNC(=O)CCCCCN2C(=CC=C3CCCC(C=CC4=[N+](CCCCS(=O)(=O)[O-])c5ccc(S(=O)(=O)O)cc5C4(C)C)=C3Oc3ccc(S(=O)(=O)O)cc3)C(C)(C)c3cc(S(=O)(=O)O)ccc32)C1=O)C(N)=O)[C@@H](C)O)[C@@H](C)O` (some centres unmarked) [HPD*-IRDye800] (H-HPDMFTRTHSHNGGGSC(X2)-NH2): the “time of return of intensity to baseline” value in data set [3] (whole-body fluorescence images post-injection) was ~ 24 h. In addition, in data set [3] (whole-body fluorescence, 300 μM, 200 μL PBS, tail vein, orthotopic HCC PDX in NSG mice, n = 6), the “time of peak uptake by HCC tumor post-injection” value turned out to be 1.5 h. Also, the half-life at 30 μM in the data set “Serum stability” is 2.6 h. Also, the uptake in kidney entry in data set [4] is recorded as “High uptake”. Moreover, in data set [5], the “acute toxicity on histopathology of major organs” value was “No signs of acute peptide toxicity”.

In the case of “PFHDMHSNHTRT [PFH*, unlabeled scrambled control peptide …]”, the “effect of unlabeled peptide on HPD*-IRDye800 fluorescence intensity” value on EpCAM [2] is reported as “did not show an intensity reduction”.

B1: EpCAM (protein)
chain: QEECVCENYKLAVNCFVNNNRQCQCTSVGAQNTVICSKLAAKCLVMKAEMNGSKLGRRAKPEGALQNNDGLYDPDCDESGLFKAKQCNGTSMCWCVNTAGVRRTDKDTEITCSERVRTYWIIIELKHKAREKPYDSKSLRTALQKEITTRYQLDPKFITSILYENNVITIDLVQNSSQKTQNDVDIADVAYYFEKDVKGESLFHSKKMDLTVNGEQLDLDPGQTLIYYVDEKAPEFSMQGLK
Molecule B1 came in with a Kd with HPD*-IRDye800 of 67 nM.
